The record followed here is paper PMC9603128, “Physiological, Biochemical, and Structural Bioinformatic Analysis of the Multiple Inositol Dehydrogenases from Corynebacterium glutamicum” (Microbiology Spectrum, 2022).

By Km is commonly meant the concentration of substrate that gives half-maximal velocity. As a reminder, the Vmax is the rate approached at saturating substrate. By kcat is commonly meant the number of substrate molecules converted per active site and unit of time at saturation. Usually kcat/Km stands for the turnover number divided by the Michaelis constant.

Common to all, as to assay: purified protein
What all share (type): biochemical, Corynebacterium glutamicum
Details in all cases: 5 mM NAD+, pH 7.5, 100 mM potassium phosphate, 1 mM MgSO4, 30 °C, substrate 0.5 to 50 mM

Substrate in data set [1]: O[C@H]1[C@H](O)[C@@H](O)[C@H](O)[C@@H](O)[C@H]1O
Substrate in data set [2]: O[C@H]1[C@H](O)[C@@H](O)[C@H](O)[C@@H](O)[C@@H]1O
Substrate in data set [3]: O[C@H]1[C@H](O)[C@H](O)[C@@H](O)[C@H](O)[C@H]1O

B1: OxiE (Corynebacterium glutamicum ATCC 13032) (protein)
chain: MKNITIGMVGVGRIGRMHVANMLAVAETLKERDLNIEIVLADAMPGFAEQVGADMGVKAAASVDKLIEDGVDALFIATSTAGHVDVLRKGIAAKLPMFCEKPIASDVPESLNIIREIDAAGATVQVGHQRRFDLGYQEAKRRLDAGDLGWLHSLKAVSSDAFPPPVSYCATSGGLFRDVSLHDFDIIRWLTGQDIVEVYAKGSNNGDPEIGAVGDIDTGAALLTLADGTLATAIATRYNGAGHDVRLDVMGSKDSTIVGLDEKSAFASAEEGIDFPTGESHPTFAERFADAYKNECIAFVELILGERENPCTPADAVAAAIVADAAQLSLVTGEPVKIPTVREILEGSAQPVEVRALVPSA
notes: full length, C-terminal Strep-tag II, expressed in C. glutamicum MB001(DE3) from pPREx6-OxiE; StrepTactin and size exclusion
Turning to B1, in the data set “purified protein [1]”, the Km came to 51.6 ± 3.6 mM, the maximum rate (Vmax) was 3.1 µmol/min/mg, the catalytic constant (kcat) stood at 3.9 ± 0.3 s⁻¹ and the kcat/Km worked out at 76.7 ± 5.2 M⁻¹ s⁻¹. For the same protein, in “purified protein [2]”, the Michaelis-Menten constant (Km) is 12.4 ± 0.8 mM, the Vmax is 13.4 µmol/min/mg, the kcat amounted to 8.5 ± 0.1 s⁻¹ and the kcat/Km was 689 ± 41.5 M⁻¹ s⁻¹. In the data set “purified protein [3]”, the Km is 54.1 ± 8.0 mM, the maximum rate (Vmax) was determined as 0.005 µmol/min/mg, the kcat is 0.003 s⁻¹ and the kcat/Km is 0.06 M⁻¹ s⁻¹.

B2: OxiD (Corynebacterium glutamicum ATCC 13032) (protein)
chain: MTLRIALFGAGRIGHVHAANIAANPDLELVVIADPFIEGAQRLAEANGAEAVASPDEVFARDDIDGIVIGSPTSTHVDLITRAVERGIPALCEKPIDLDIEMVRACKEKIGDGASKVMLGFNRRFDPSFAAINARVANQEIGNLEQLVIISRDPAPAPKDYIAGSGGIFRDMTIHDLDMARFFVPNIVEVTATGANVFSQEIAEFNDYDQVIVTLRGSKGELINIVNSRHCSYGYDQRLEAFGSKGMLAADNIRPTTVRKHNAESTEQADPIFNFFLERYDAAYKAELATFAQGIRDGQGFSPNFEDGVIALELANACLESAQTGRTVTLNPANV
notes: full length, C-terminal Strep-tag II, expressed in C. glutamicum MB001(DE3) from pPREx6-OxiD; StrepTactin and size exclusion
Consider B2, for which, in the data set “purified protein [1]”, the Km came out at 19.6 ± 1.8 mM, the Vmax is 59 µmol/min/mg, the catalytic constant (kcat) was 35.6 ± 1.4 s⁻¹ and the kcat/Km worked out at 1830 ± 107 M⁻¹ s⁻¹. For the same protein, in “purified protein [3]”, the Km is 50.6 ± 8.7 mM, the Vmax came to 25.5 µmol/min/mg, the kcat came to 15.4 ± 1.7 s⁻¹ and the kcat/Km amounted to 308 ± 20 M⁻¹ s⁻¹.

B3: IolG (Corynebacterium glutamicum ATCC 13032) (protein)
chain: MSKSLRVGVVGAGAMGADHIDRINNRTSGAHISAIIEPDAARAAAAAEDAPGAQAFTRIEDAIAADAVDAVLIAVPGQFHEPVLVPALEAGLPILCEKPLTPDSESSLRIVELEQKLDKPHIQVGFMRRFDPEYNNLRKLVESGEAGELLMLRGLHRNPSVGESYTQSMLITDSVVHEFDVIPWLAGSRVVSVEVKYPKTSSLAHSGLKEPILVIMELENGVLVDVEMNVNIQFGYQVATEAVFEKGLARIGQPSGMQRWRDGEFLINEHTDFTTRFATAYDRQIQSWVDAVHEGTLVAGPNAWDGYLVALSCEAGVKALDGGVIPVDAAPRPDFYA
notes: full length, C-terminal Strep-tag II, expressed in C. glutamicum MB001(DE3) from pPREx6-IolG; StrepTactin and size exclusion
Take B3: in the data set “purified protein [1]”, the Km worked out at 60.9 ± 13.7 mM, the maximal velocity (Vmax) was 23.1 µmol/min/mg, the kcat came out at 14 ± 1.9 s⁻¹ and the kcat/Km was found to be 235 ± 23.4 M⁻¹ s⁻¹. In “purified protein [3]”, the Michaelis constant (Km) is 61.93 ± 5.61 mM, the kcat was 8.66 ± 0.54 s⁻¹ and the kcat/Km was 140 ± 7.4 M⁻¹ s⁻¹.

B4: OxiB (Corynebacterium glutamicum ATCC 13032) (protein)
chain: MTQQELRVAVIGAGMAGKAHAAGYRTASSIYSTTLPNIRLVSIADANVQLAEETAARFGFERFDTSWQAIVEADDIDVVSVVVANFLHREIVEALLASGKHVLCEKPLSDTIEDAEAMIEAAGRAATNGTIARIGLTYRRSPGVAHIRDLVQSGELGKVLHVTGHYWTDYGSNAQAPISWRYKGPNGSGALADVGSHLTYLAEFVAGSDFAAVRGGQLSTVITERPKPLGAIVGHEGGAVSDEYEAVENDDIASFSGSFIGGGTATLQVSRISQGHPNTLGFEVFCEKGSVLFDFRNSGEFKIFTPATSGDISQEAGYRTITIGPKHPYWRGGLAMDAPGVGIGQNEGFVFQARAFLEEIAGISEAESLPRCATLEEGLHNMQLIDAVSQSAAAGGETVAVPAAALIPANN
notes: full length, C-terminal Strep-tag II, expressed in C. glutamicum MB001(DE3) from pPREx6-OxiB; StrepTactin and size exclusion
As for B4, in “purified protein [1]”, the Michaelis-Menten constant (Km) is reported as 62.1 ± 12.5 mM, the Vmax is 5.8 µmol/min/mg, the kcat was 4.2 ± 0.4 s⁻¹ and the kcat/Km was found to be 69.1 ± 7.3 M⁻¹ s⁻¹. For the same protein, in the data set “purified protein [2]”, the Km worked out at 28.8 ± 7.1 mM, the Vmax is 0.05 µmol/min/mg, the catalytic constant (kcat) worked out at 0.03 s⁻¹ and the kcat/Km was determined as 1.03 ± 0.11 M⁻¹ s⁻¹.
